Results: US20170157250A1 (Genmab, published 2017)

T1: human AXL (full length, on cells) (human (Homo sapiens), UniProt P30530 26-894)
T1 construct: Used for transfected HEK293 cells and for AXL-positive A431 cells (endogenous AXL); also called hsAXL; Homo sapiens AXL
T1 sequence: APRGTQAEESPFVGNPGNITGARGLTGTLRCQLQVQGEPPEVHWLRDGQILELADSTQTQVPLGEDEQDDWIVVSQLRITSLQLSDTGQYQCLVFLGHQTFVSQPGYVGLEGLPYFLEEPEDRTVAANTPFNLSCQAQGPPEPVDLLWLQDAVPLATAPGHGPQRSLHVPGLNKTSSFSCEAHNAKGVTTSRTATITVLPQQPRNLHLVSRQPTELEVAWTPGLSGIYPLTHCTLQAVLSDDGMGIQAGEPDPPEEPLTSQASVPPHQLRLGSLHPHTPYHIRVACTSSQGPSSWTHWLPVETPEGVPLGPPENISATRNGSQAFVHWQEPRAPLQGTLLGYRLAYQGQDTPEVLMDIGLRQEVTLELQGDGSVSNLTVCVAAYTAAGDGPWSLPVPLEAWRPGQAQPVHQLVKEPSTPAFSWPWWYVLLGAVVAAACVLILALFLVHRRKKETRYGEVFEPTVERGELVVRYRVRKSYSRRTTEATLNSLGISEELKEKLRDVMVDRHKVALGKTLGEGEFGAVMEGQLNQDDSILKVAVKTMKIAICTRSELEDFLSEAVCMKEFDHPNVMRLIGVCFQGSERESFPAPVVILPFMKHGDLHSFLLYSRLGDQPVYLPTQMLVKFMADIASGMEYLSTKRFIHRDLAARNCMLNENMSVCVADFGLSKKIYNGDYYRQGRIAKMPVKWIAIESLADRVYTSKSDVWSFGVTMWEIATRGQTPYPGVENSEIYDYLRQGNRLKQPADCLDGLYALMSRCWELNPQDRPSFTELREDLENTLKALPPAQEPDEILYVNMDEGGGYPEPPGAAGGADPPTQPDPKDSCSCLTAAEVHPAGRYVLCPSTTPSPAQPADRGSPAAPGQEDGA


Key:
[1] = target: T1, human AXL (full length, on cells); experiment: flow cytometry, HEK293T cells transiently transfected with full-length human AXL, 4-fold dilutions, PE-anti-human IgG F(ab')2
Description: Binding curves were analyzed using non-linear regression (sigmoidal dose-response with variable slope) using GraphPad Prism V5.04 software (GraphPad Software, San Diego, Calif., USA).

[2] = target: T1, human AXL (full length, on cells); experiment: flow cytometry, HEK-293F cells transfected with full length human AXL, 4-fold dilutions of antibody, PE-anti-human IgG F(ab')2

EC50 (read off the curve) [1] [µg/mL] | EC50 (read off the curve) [2] [µg/mL] | Binder
~0.2 | – | IgG1-AXL-183-A-vcDuo3 (other, The sheet writes '-A-vcDuo3', the text '-vcDuo3'; also called IgG1-AXL-183-vcDuo3; IgG1-AXL-183-vcDuostatin3) heavy chain: QVQLQQWGAGLLKPSETLSLTCAVYGGSFSGYYWSWIRQPPGKGLEWIGEINQSGSTNYNPSLKSRVTISVDTSKNQFSLKLSSVTAADTSVYYCASGNWDHFFDYWGQGTLVTVSS light chain: DIQMTQSPSSVSASVGDRVTITCRASQGISSWLAWYQHKPGKAPKLLIYATSSLQSGVTSRFSGSGSGTDFTLTISSLQPEDFATYYCQQAKSFPWTFGQGTKVEIK
– | ~0.2 | IgG1-AXL-107 (antibody, V domains shown, Expressed as IgG1,kappa) VH: EVQLLESGGGLVQPGGSLRLSCAASGFTFSSYAMNWVRQAPGKGLEWVSTTSGSGASTYYADSVKGRFTISRDNSKNTLYLQMNSLRAEDTAVYYCAKIWIAFDIWGQGTMVTVSS VL: not shown
– | ~0.2 | IgG1-AXL-171 (antibody, V domains shown, Expressed as IgG1,kappa) VH: EVQLLESGGGLVQPGGSLRLSCAASGFTFSSYAMSWVRQAPGKGLEWVSDISVSGGSTYYADSVKGRFTISRDNSKNTLYLQMNSLRAEDTAVYYCAKEGYIWFGESLSYAFDIWGQGTMVTVSS VL: not shown
